Assay results taken from patent publication US20080050387A1, “Non-Androgen Dependent Roles for Androgen Receptor and Non-Androgen Related Inhibitors of Androgen Receptor” (priority 2003, published 2008).
One block for each molecule: values may come before it.

Tests used:
AR [1] = experiment: Mammalian two-hybrid assay hRad9 / AR in PC-3 cells; format: cell-based, human; settings: 10 nM DHT
Method: (§1) PC-3, CWR22R, and LNCaP cell lines were maintained in […] supplemented with 10% fetal calf serum (FCS). Transient transfection for luciferase assays was carried out in 24-well plates (5×10^4 cells per well) using SuperFect as described previously (Lin, H. K., et al., Embo J 21:4037-48 (2002)). DNA mixtures in transfection assay were indicated in each figure. The total amount of transfected DNA was kept constant (1 μg) by adding the corresponding amounts of empty expression plasmids. After transfection, cells were cultured in […] supplemented with 5% charcoal-stripped FCS in the presence or absence of 10 nM dihydrotestosterone (DHT) for 18 h. Luciferase assays were performed as previously described (Yang, L., et al., J Biol Chem 278:16820-7 (2003)). In Western blotting assays, CWR22R or LNCaP cells were transfected by electroporation using 5×10^6 cells/0.4 ml of RPMI medium containing 2% FCS plus 9 μg of the indicated plasmids. 1 μg of EGFP expression vector was used for transfection efficiency. Electroporation was performed at 250 V and 950 μF using Gene Pulser II (Bio-Rad)
Target sequence in this assay (P10275 with tags, fused parts or gaps DEL79-80/DUP473-473): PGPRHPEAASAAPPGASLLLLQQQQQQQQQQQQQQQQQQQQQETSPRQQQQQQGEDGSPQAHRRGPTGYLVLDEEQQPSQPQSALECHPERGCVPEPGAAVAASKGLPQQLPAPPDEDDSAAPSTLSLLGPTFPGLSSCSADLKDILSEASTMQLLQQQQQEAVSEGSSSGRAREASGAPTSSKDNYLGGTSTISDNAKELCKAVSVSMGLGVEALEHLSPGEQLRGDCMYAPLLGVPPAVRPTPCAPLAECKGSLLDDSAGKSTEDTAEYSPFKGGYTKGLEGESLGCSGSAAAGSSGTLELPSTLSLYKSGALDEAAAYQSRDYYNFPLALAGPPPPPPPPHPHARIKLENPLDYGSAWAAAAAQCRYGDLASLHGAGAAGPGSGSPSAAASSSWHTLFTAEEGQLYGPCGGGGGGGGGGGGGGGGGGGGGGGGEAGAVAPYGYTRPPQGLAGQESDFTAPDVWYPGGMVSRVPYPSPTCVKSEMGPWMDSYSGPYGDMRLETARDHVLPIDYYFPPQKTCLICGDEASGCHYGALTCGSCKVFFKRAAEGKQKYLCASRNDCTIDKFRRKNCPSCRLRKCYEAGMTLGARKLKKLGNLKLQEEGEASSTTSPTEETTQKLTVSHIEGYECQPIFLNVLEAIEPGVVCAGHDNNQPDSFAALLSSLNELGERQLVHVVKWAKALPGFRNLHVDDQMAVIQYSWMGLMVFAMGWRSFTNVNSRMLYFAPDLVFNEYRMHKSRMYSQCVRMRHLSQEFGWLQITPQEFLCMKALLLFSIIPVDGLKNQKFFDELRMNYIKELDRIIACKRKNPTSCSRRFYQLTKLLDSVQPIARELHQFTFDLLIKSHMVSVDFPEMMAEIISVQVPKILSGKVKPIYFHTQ

AR [2] = experiment: AR transactivation MMTV-LUC assay in PC-3 cells with hRad9; format: cell-based, human; settings: pCMV-AR, hRad9 termini
Method: as §1
Target sequence in this assay (P10275 with tags, fused parts or gaps DEL79-80/DUP473-473): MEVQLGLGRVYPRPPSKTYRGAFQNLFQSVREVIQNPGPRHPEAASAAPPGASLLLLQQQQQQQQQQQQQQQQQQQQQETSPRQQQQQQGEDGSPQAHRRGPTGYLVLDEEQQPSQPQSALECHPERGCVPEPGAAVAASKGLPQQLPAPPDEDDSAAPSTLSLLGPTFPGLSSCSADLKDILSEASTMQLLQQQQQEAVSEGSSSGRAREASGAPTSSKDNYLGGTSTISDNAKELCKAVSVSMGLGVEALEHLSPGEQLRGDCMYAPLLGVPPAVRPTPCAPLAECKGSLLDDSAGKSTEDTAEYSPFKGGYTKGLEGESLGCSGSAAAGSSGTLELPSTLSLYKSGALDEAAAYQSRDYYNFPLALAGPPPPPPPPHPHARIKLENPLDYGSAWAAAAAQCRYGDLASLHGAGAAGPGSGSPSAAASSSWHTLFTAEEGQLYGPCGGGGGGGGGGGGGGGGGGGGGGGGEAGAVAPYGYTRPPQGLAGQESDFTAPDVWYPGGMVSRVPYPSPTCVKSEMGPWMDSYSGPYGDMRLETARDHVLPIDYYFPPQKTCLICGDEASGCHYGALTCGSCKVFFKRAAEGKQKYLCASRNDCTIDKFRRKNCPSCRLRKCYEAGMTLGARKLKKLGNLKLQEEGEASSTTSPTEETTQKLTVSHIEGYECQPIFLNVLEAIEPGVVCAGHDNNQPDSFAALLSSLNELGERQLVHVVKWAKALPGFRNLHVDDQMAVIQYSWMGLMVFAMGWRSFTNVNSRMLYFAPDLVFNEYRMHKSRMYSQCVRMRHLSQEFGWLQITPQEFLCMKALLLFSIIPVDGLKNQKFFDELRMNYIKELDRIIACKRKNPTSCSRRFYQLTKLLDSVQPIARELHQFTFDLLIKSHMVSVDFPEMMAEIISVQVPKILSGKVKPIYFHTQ

AR N/C interaction = experiment: Reconstituted AR transcription assay (AR N/C interaction) in PC-3 cells; format: cell-based, human; settings: 10 nM DHT, MMTV-LUC
Sequence of AR N/C interaction (P10275 557-920): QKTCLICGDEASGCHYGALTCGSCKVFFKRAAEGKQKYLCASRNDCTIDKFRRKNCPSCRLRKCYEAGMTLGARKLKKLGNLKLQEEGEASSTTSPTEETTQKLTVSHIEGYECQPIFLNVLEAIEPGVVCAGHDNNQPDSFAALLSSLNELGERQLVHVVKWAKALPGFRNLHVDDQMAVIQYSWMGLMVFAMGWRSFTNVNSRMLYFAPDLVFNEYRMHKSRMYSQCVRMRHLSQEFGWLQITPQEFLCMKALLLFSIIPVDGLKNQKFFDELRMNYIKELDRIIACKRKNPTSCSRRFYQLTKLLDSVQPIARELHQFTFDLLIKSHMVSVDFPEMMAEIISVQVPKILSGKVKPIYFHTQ
Method: as §1

[3] = test system: MAPK (GAL4-Elk1 transactivation); experiment: GAL4-Elk1 reporter gene assay (MAPK activation) in MCF7 cells; format: cell-based, human; settings: AR-FL-activated, pG5-luc reporter
Method: Cells were plated in 96-well plates and plasmids at 0.5 μg per well were transfected into cells using SuperFect (Qiagen). The medium was changed 2 h after transfection and cells were cultured in the medium containing 10% CDS-FBS or 0.2% HI-FBS for 16 h, followed by treatment with 50 ng/ml EGF, 100 ng/ml IGF-1,100 ng/ml HRG-α 0.1 nM E2, or 1 nM DHT for another 16 h. Cells were then harvested and the luciferase activity was analyzed using Dual-Luciferase Reporter Assay System (Promega). 5 ng pRL-TK per well was used as internal control.

AR [4] = experiment: AR transactivation luciferase assay in COS-1 cells with GSK3β; format: cell-based, human
Method: (§2) COS-1 and PC-3 cells were maintained in early to mid-log phase in DMEM medium, supplemented with 10% fetal bovine serum (FBS), 50 units/ml penicillin and 50 μg/ml streptormnycin in incubators with humidified air and 5% carbon dioxide at 37° C. LNCaP cells were maintained in RPMI (GIBCO/BRL) medium. Twenty-four h prior to transfection, cells washed with Hanks' buffered saline solution, trypsinized, and seeded to be a density of 40-60% confluence for transfection. Cells in 12 well plates were refed with fresh medium 2 hours before transfection and transfected according to the “SuperFect Transfection” instructions (QIAGEN). After 2-3 h incubation, cells were treated with medium supplemented with charcoal-dextran treated FBS containing either ethanol or ligands. Cells were further incubated at 37° C. for 24 h, washed with PBS, and harvested.

[5] = target: T1, human glucocorticoid receptor (hGR) (Homo sapiens, UniProt P04150); experiment: hGR transactivation luciferase assay in COS-1 cells with GSK3β; format: cell-based
T1 construct: expressed in transfected cells; host or cells: COS-1
T1 sequence (P04150 1-777): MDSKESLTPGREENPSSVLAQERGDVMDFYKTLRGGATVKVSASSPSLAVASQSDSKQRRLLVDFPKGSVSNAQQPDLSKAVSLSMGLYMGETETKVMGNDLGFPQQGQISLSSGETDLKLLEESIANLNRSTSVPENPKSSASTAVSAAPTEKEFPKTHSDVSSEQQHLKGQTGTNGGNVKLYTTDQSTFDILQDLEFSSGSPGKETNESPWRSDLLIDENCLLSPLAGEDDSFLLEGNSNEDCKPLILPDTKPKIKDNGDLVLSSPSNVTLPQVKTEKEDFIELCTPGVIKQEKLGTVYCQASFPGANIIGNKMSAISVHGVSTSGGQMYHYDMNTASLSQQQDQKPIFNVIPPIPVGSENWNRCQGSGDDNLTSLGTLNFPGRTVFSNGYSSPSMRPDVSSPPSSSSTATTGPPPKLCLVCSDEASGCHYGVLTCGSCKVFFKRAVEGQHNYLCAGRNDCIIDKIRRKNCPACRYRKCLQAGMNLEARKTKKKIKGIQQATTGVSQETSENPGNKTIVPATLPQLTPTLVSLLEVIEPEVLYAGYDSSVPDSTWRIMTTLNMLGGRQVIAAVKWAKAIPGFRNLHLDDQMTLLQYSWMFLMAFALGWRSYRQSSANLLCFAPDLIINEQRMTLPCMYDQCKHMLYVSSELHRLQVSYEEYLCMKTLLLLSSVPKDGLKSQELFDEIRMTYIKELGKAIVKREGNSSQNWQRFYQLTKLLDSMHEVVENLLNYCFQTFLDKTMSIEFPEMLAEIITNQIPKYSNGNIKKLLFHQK
Method: as §2

AR [6] = experiment: AR transactivation luciferase assay in LNCaP cells with GSK3β; format: cell-based, human; settings: MMTV-Luc, DHT
Method: as §2
Target sequence in this assay (P10275 whole entry T878A): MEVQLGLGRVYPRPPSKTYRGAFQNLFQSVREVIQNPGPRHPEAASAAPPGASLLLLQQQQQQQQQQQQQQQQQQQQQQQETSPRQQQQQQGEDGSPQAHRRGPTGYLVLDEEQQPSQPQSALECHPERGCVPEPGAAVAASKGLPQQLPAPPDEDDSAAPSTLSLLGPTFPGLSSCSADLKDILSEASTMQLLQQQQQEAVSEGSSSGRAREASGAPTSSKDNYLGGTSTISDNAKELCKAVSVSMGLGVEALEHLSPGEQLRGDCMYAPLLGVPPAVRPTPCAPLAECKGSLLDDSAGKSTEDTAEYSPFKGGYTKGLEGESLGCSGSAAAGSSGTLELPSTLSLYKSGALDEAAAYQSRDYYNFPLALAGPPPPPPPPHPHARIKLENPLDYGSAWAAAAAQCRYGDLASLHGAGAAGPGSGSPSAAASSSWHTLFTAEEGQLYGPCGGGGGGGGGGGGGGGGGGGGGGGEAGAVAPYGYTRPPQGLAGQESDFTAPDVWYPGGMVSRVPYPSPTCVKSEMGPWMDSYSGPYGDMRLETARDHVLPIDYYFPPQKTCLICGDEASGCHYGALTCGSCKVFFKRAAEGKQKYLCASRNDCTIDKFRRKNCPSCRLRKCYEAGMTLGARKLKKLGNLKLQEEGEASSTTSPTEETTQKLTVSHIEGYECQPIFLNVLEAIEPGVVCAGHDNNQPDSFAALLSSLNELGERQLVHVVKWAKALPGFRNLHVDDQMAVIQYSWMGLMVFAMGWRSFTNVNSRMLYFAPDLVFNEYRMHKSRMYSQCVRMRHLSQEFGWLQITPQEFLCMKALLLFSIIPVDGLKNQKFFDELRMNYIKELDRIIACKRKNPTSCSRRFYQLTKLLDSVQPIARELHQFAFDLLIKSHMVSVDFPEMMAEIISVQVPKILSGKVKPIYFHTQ

[7] = test system: PSA expression in LNCaP cells; experiment: PSA promoter activity and PSA mRNA (Northern blot) in LNCaP cells with GSK3β; format: cell-based, human
Method: as §2

AR [8] = experiment: In vitro kinase assay of GSK3β on AR fragments; format: biochemical, human; settings: 30 min at 30° C.
AR AF-1 / AF-2 = experiment: GAL4-ARN / GAL4-AR-LBD pG5-Luc reporter assay in COS-1 cells; format: cell-based, human
Method: as §2

AR [9] = experiment: AR expression by immunoblot in LNCaP cells transfected with GSK3β; format: cell-based, human; settings: pCMV-GSK3β vs pCMV vector
Target sequence in this assay (P10275 whole entry T878A): as above

AR [10] = experiment: GST pull-down assay GSK3β / AR; format: binding, human; settings: presence or absence of DHT
Method: 5 μl of in vitro-translated β5S]-labeled AR was incubated with the GST or GST-GSK3β bound to glutathione-Sepharose beads in a pull-down assay. After extensive washing, bead-bound protein complexes were loaded onto 8% SDS-PAGE and analyzed by Phosphorlmager. The input represents 20% amount of [^35S]-labeled proteins used in each pull-down assay. […] COS-1 cells were solubilized in RIPA buffer containing 0.5% NP-40 and protease inhibitors. Immunoprecipitation was performed using mouse HA antibody (1:1000) or normal mouse IgG (N-IgG) and then analyzed by Western blot with anti-AR NH27 (1:1000) or anti-GSK3β (1:1000) antibodies, followed by incubation with AP conjugate goat anti-rabbit or rabbit anti-mouse IgM antibodies, and visualized with AP conjugate kit (Bio-Rad).
Target sequence in this assay (P49841 whole entry partner): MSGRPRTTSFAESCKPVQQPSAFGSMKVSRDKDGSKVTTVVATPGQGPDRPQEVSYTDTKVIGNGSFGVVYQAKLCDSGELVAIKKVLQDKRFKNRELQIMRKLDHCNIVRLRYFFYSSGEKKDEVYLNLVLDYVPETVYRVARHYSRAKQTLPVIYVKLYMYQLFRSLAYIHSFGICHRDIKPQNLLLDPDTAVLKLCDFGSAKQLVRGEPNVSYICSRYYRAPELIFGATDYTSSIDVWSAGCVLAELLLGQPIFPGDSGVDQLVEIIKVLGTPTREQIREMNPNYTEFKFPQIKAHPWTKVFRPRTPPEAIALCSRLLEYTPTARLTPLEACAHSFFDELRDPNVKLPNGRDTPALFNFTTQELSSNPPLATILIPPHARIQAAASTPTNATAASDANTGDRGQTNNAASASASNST

B1: C-terminus of hRad9: hRad9 aa 269-391 (protein, UniProt Q99638 269-391, looked up, fragment)
chain: DSHSQDLGSPERHQPVPQLQAHSTPHPDDFANDDIDSYMIAMETTIGNEGSRVLPSISLSPGPQPPKSPGPHSEEEDEAEPSTVPGTPPPKKFRSLFFGSILAPVRSPQGPSPVLAEDSEGEG
interaction with AR (AR [1]): strong interaction | AR-mediated transactivation (full length AR) (AR [2]): suppressed | interaction between AR N- and C-terminus (AR N/C interaction): potently inhibit

B2: CL-100: MAPK phosphatase-1 (protein, UniProt P28562 1-367, looked up)
Dual specificity protein …: MVMEVGTLDAGGLRALLGERAAQCLLLDCRSFFAFNAGHIAGSVNVRFSTIVRRRAKGAMGLEHIVPNAELRGRLLAGAYHAVVLLDERSAALDGAKRDGTLALAAGALCREARAAQVFFLKGGYEAFSASCPELCSKQSTPMGLSLPLSTSVPDSAESGCSSCSTPLYDQGGPVEILPFLYLGSAYHASRKDMLDALGITALINVSANCPNHFEGHYQYKSIPVEDNHKADISSWFNEAIDFIDSIKNAGGRVFVHCQAGISRSATICLAYLMRTNRVKLDEAFEFVKQRRSIISPNFSFMGQLLQFESQVLAPHCSAEAGSPAMAVLDRGTSTTTVFNFPVSIPVHSTNSALSYLQSPITTSPSC
AR-activated GAL4-Elk1 activity [3]: diminished

hGR transactivation [5]: failed to inhibit | phosphorylation of GST-AR38-560 (N-terminus) (AR [8]): significantly phosphorylated | phosphorylation of GST-AR-DBD-LBD or 6His-AR-LBD (AR [8]): slightly phosphorylated | binding of 35S-methionine-labeled AR to GST-GSK3β (AR [10]): bind specifically
B3: GSK3β: glycogen synthase kinase 3β, serine/threonine protein kinase (SEQ ID NO:5), wild type (protein)
chain: MSGRPRTTSFAESCKPVQQPSAFGSMKVSRDKDGSKVTTVVATPGQGPDRPQEVSYTDTKVIGNGSFGVVYQAKLCDSGELVAIKKVLQDKRFKNRELQIMRKLDHCNIVRLRYFFYSSGEKKDEVYLNLVLDYVPETVYRVARHYSRAKQTLPVIYVKLYMYQLFRSLAYIHSFGICHRDIKPQNLLLDPDTAVLKLCDFGSAKQLVRGEPNVSYICSRYYRAPELIFGATDYTSSIDVWSAGCVLAELLLGQPIFPGDSGVDQLVEIIKVLGTPTREQIREMNPNYTEFKFPQIKAHPWTKDSSGTGHFTSGVRVFRPRTPPEAIALCSRLLEYTPTARLTPLEACAHSFFDELRDPNVKLPNGRDTPALFNFTTQELSSNPPLATILIPPHARIQAAASTPTNATAASDANTGDRGQTNNAASASASNST
AR-mediated transcription of the luciferase reporter reduced by (AR [4]; ARE4-Luc, 10 nM DHT): about 40% | DHT-mediated AR transactivation / AR transcriptional activity (AR [4]; MMTV-Luc): inhibits | activity of AR (AR [6]): reduced | expression of PSA mRNA ([7]; Northern blot, 10 nM DHT): reduced | DHT-mediated induction of transcription from the PSA promoter ([7]; PSA-luc): repressed | activity of GAL4-AR-LBD (AR AF-1 / AF-2): did not influence | constitutive transcriptional activity of GAL4-ARN (AR AF-1 / AF-2): inhibited | endogenous expression of AR (AR [9]): little change

B4: N-hRad9: PCNA-like domain of hRad9, aa 1-270 (protein)
chain: MKCLVTGGNVKVLGKAVHSLSRIGDELYLEPLEDGLSLRTVNSSRSAYACFLFAPLFFQQYQAATPGQDLLRCKILMKSFLSVFRSLAMLEKTVEKCCISLNGRSSRLVVQLHCKFGVRKTHNLSFQDCESLQAVFDPASCPHMLRAPARVLGEAVLPFSPALAEVTLGIGRGRRVILRSYHEEEADSTAKAMVTEMCLGEEDFQQLQAQEGVAITFCLKEFRGLLSFAESANLNLSIHFDAPGRPAIFTIKDSLLDGHFVLATLSDTDS
interaction with AR (AR [1]): did not | interaction between AR N- and C-terminus (AR N/C interaction): no effect
